Source: patent publication US20110136811A1, “PROKINETICIN 1 RECEPTOR” (published 2011)

Biological target: rat PK1 receptor, endogenous in rat ileum (rat, UniProt Q8R416)
Assay: cell-based or functional assay

EC50 of the early contractile response of isolated rat ileum: 87.8 nM | EC50 of the late contractile response of isolated rat ileum: 72.4 nM
B1: PK1 ligand preparation (recombinant human Prokineticin 1 after enterokinase removal of the N-terminal FLAG tag) (ligand)
chain: AVITGACERDVQCGAGTCCAISLWLRGLRMCTPLGREGEECHPGSHKVPFFRKRKHHTCPCLPNLLCSRFPDGRYRCSMDLKNINF
